We go through 2 substances from PMC4222252.

The target in experiment [1] is His6-tagged HIV-1 integrase E10R/E13R (HIV-1).
Experiment [2] addresses His6-tagged HIV-1 integrase E10R/E13R/K42E (HIV-1).
Experiment [3] concerns the target His6-tagged HIV-1 integrase K42E (HIV-1). The experiment can be described thus: pull-down.
In experiment [4] the target is His6-tagged HIV-1 integrase E10R/E13R (HIV-1). The experiment is described as follows: pull-down.
Experiment [5] concerns the target His6-tagged HIV-1 integrase E10R/E13R/K42E (HIV-1). The experiment is described as follows: pull-down.

Consider “LEDGF/p75 K401E/K402E/R405E (from UniProt O75475 1-530) (natural protein)”, for which the concerted integration activity in vitro, percent of WT IN with WT LEDGF/p75 in experiment [1] was determined as 55%; in experiment [2] it was 78%. In addition, the percent of the WT LEDGF/p75 bound by WT IN stood at 42% in experiment [3], 11% in experiment [4] and 15% in experiment [5].
Consider “lens epithelium-derived growth factor (LEDGF)/p75, wild type (from UniProt O75475 1-530) (natural protein)”, for which the concerted integration activity in vitro, percent of WT IN with WT LEDGF/p75 in experiment [1] was found to be 53%; in experiment [2] it was 18%.
